Holding throughout (assay): BLI
What all share (settings): both partners purified

One experiment deals with T1, fHbp m001848 (Neisseria meningitidis, engineered fHbp …, chimera).
T1 chain: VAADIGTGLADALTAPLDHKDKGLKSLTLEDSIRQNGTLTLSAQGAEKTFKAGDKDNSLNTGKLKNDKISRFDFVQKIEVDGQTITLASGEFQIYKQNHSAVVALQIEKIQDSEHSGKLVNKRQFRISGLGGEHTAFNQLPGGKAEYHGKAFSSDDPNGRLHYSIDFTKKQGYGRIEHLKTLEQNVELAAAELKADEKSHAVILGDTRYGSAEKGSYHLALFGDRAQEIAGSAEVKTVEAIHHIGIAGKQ

The next experiment deals with T2, fHbp m001529 (Neisseria meningitidis, fHbp …, point mutant).
T2 chain: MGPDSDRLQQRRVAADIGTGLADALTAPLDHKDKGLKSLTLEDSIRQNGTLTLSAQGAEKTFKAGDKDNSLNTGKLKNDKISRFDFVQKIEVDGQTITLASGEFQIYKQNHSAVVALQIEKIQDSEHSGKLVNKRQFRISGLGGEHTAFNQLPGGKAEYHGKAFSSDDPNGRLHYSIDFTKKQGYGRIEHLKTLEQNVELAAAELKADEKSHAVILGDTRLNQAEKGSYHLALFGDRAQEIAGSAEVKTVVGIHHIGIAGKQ

Experiment [1] addresses T3, factor H binding protein variant 3.28 (Neisseria meningitidis, fHbp variant …).
T3 construct: also called fHbp v3.28; v3.28 Control (0002)
T3 chain: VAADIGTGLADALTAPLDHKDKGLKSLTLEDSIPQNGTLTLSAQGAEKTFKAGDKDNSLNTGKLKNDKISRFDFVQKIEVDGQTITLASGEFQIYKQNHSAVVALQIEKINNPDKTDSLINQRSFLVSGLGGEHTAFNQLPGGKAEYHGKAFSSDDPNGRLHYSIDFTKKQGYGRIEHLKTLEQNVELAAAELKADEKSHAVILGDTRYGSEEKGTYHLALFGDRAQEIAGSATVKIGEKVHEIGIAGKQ

Another experiment concerns the target T4, fHbp m001941 (Neisseria meningitidis fHbp v3.28, …, chimera).
T4 chain: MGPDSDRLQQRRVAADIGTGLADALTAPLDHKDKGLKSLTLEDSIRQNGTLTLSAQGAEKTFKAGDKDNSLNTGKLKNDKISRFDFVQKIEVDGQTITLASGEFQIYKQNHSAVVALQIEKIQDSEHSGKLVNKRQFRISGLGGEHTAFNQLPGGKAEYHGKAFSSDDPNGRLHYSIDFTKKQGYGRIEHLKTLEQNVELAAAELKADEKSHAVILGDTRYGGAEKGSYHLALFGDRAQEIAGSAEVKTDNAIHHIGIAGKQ

A further experiment concerns the target T5, fHbp m001608 (Neisseria meningitidis, fHbp …, point mutant).
T5 chain: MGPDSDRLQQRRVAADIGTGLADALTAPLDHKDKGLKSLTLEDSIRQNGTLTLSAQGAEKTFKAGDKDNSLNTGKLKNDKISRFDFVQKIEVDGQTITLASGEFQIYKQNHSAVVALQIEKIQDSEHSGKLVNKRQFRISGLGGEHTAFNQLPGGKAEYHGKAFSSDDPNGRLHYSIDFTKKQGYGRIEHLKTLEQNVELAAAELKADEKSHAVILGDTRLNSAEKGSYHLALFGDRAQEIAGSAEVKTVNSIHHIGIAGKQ

For another experiment, the target named is T6, fHbp m001822 (Neisseria meningitidis, engineered fHbp …, point mutant).
T6 chain: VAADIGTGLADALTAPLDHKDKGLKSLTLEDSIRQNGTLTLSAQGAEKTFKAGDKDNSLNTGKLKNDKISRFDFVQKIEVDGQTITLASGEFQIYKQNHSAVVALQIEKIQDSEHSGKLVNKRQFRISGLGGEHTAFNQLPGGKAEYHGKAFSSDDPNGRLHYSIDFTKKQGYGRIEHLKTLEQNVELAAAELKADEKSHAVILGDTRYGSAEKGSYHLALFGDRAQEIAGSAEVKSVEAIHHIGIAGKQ

In a further experiment the target is T7, fHbp m001604 (Neisseria meningitidis, fHbp …, point mutant).
T7 chain: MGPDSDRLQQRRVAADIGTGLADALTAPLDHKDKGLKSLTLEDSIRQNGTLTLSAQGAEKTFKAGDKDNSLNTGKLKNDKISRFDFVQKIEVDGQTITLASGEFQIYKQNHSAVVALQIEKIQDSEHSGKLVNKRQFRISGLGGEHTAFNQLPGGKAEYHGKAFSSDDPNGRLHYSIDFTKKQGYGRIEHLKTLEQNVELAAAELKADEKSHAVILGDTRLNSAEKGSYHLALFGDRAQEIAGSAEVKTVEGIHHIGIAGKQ

For another experiment, the target named is T8, fHbp m002334 (Neisseria meningitidis, engineered fHbp …, chimera).
T8 chain: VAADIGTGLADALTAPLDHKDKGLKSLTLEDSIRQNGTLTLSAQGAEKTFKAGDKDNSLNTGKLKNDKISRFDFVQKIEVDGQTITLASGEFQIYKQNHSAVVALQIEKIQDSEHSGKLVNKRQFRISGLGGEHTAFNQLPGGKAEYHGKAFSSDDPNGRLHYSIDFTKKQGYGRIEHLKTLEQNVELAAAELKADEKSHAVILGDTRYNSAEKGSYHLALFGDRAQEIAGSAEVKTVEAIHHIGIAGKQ

In the next experiment the target is T9, fHbp mutant 0018 (Neisseria meningitidis, fHbp v1.1 mutant, point mutant).
T9 chain: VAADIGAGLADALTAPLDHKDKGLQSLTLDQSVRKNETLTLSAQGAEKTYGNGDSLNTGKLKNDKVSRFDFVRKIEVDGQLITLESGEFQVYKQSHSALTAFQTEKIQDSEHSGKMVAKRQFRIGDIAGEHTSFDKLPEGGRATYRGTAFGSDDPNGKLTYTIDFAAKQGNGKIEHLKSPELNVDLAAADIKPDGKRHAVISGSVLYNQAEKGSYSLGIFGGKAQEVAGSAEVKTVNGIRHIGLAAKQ

We go through two molecules from article PMC12319226 (Frontiers in Bioinformatics, 2025).

B1: mAb 1E6 (human) (antibody, V domains shown)
VH: EVQLVQSGAEVKKPGSSVKVSCKASGGTVIDYPITWVRQAPGQGLEWVGGFVPLFRTSNYGQKFQGRVTITADKSTSTASMELNSLTSEDTAIYYCARGDTAMGPFDYWGQGTLVTVSS
VL: SYVLTQPPSLSVAPGKTATLTCGGNNIAGKTVHWYQQRPGQAPVLVISYDSDRPSGIPERFSGSNSANTATLTISRVEAGDEADYYCQVWDRNSDHWVFGGGTKLTVL
notes: source: Expi293, purified (MabSelect SuRe, SEC); copies: 2 + 2
What is called Kd is a measure of binding affinity in units of concentration. Higher therefore signals weaker binding. What is called koff is the rate constant with which the complex falls apart. As usually defined, the kon is the rate constant with which the complex forms. As to B1, the Kd with fHbp m001848 came to 344 pM; with fHbp m001529 it was 338 pM; in [1], 770 pM; with fHbp m001941, 464 pM; with fHbp m001608 it was 154 pM; with fHbp m001822, 455 pM. Besides, the Kd in the experiment with fHbp m001604 was found to be 493 pM; in the experiment with fHbp m002334, 844 pM; with fHbp mutant 0018, 1040 pM. Moreover, the koff with fHbp m001848 worked out at 0.000155 s⁻¹; with fHbp m001529, 0.000156 s⁻¹; in [1], 0.000387 s⁻¹; in the experiment with fHbp m001941 it was 0.00015 s⁻¹; in the experiment with fHbp m001608, 8.28e-05 s⁻¹; with fHbp m001822, 0.00017 s⁻¹. In addition, the koff in the experiment with fHbp m001604 was found to be 0.000104 s⁻¹; with fHbp m002334, 0.000101 s⁻¹; in the experiment with fHbp mutant 0018, 0.000558 s⁻¹. Also, the kon with fHbp m001848 was found to be 451100 ± 2150 M⁻¹ s⁻¹; in the experiment with fHbp m001529, 460900 ± 3880 M⁻¹ s⁻¹; in experiment [1] it was 501900 ± 2080 M⁻¹ s⁻¹; with fHbp m001941, 323000 ± 2300 M⁻¹ s⁻¹; with fHbp m001608 it was 537900 ± 1940 M⁻¹ s⁻¹; with fHbp m001822, 372900 ± 2610 M⁻¹ s⁻¹. The kon with fHbp m001604 came to 210000 ± 2260 M⁻¹ s⁻¹; with fHbp m002334, 119300 ± 930 M⁻¹ s⁻¹; in the experiment with fHbp mutant 0018, 538300 ± 3080 M⁻¹ s⁻¹.

B2: mAb 4B3 (human) (antibody, V domains shown)
VH: QVQLVQSGGGLVKPGGSLRLSCAASGFPFSSYYMSWIRQAPGKGLEWVSDINNSGNVKEYADFVKGRLTISRDNVKNSMYLHMNSLRVEDTAVYYCARNRGRFDVWGQGTLVTVSA
VL: EIVMTQSPGTLSLSPGETATLSCRASQMISSPFLAWYQQRRGQAPRLLIYGASTRATDTPDRFRGSGSGTDFILTISRLEPEDFAVYYCQYYDDSPFTFGQGTKLEIK
notes: also called 4B3-2; source: Expi293, purified (MabSelect SuRe, SEC); copies: 2 + 2
In the experiment with fHbp mutant 0018, B2 registered a Kd of 2360 pM, a koff of 0.00101 s⁻¹ and a kon of 426800 ± 2190 M⁻¹ s⁻¹.
